For the experiment, the target named is T1, natriuretic peptide receptor-B (human).
T1 chain: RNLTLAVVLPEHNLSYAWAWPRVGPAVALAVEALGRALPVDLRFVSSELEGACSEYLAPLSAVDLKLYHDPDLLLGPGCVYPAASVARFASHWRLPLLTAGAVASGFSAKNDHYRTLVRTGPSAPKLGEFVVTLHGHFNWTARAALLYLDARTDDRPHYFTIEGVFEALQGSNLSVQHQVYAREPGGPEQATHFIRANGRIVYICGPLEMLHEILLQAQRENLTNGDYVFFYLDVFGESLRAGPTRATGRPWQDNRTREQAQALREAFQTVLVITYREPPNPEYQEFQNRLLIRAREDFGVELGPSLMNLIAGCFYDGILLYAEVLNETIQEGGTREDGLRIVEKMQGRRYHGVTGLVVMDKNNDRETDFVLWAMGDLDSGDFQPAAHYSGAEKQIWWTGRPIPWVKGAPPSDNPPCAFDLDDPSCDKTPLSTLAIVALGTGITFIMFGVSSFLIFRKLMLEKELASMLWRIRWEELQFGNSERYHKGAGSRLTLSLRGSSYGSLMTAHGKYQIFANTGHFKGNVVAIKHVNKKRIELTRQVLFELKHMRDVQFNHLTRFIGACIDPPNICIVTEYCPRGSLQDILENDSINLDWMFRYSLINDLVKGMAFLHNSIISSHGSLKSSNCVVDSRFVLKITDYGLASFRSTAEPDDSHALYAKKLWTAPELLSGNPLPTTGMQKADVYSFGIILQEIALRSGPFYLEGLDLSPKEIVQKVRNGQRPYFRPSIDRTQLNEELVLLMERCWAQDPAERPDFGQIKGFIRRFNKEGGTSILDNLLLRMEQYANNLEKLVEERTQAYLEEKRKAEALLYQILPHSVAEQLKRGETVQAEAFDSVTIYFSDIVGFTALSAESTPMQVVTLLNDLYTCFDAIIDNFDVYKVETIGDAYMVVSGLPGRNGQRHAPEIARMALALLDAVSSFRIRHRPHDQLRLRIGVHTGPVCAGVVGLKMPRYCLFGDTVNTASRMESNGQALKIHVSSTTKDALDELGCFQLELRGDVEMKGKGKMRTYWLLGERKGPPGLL
As to the kind of experiment: cell-based or functional assay.

Numbered stars: 1 amine (or outer) side, 2 acyl side, 3 side chain; on linkers, the order of the positions; unused ones are H or OH. Square brackets hold non-standard residues; d marks the D form. Ends that are not written are not given here. * marks the point of attachment. Pmy = (S)-para-methoxy-phenylalanine, COc1ccc(C[C@H](N[*:1])C(=O)[*:2])cc1; Pro(trans-4-NH2) = O=C([C@@H]1C[C@@H](N[*:3])CN1[*:1])[*:2]; 1381 = (S)-3,3-dimethylbutan-2-amine, C[C@H](N*)C(C)(C)C; Sni = (S)-nipecotic acid, O=C([C@H]1CCCN([*:1])C1)[*:2]; Phe(4-NO2) = N[C@@H](Cc1ccc([N+](=O)[O-])cc1)C(=O)O; Pro(trans-4-Ph) = O=C(O)[C@@H]1C[C@@H](c2ccccc2)CN1; NH((S)-tetralin-1-yl) = c1ccc2c(c1)CCC[C@@H]2N*; Phe(3,4-Cl2) = N[C@@H](Cc1ccc(Cl)c(Cl)c1)C(=O)O; 5121 = 1-propyl-butyl-amine, CCCC(CCC)N*; dGly(2-thienyl) = N[C@@H](C(=O)O)c1cccs1; Bmf = rac-2-amino-3-phenyl-butyric acid; Gly(2-thienyl) = N[C@H](C(=O)O)c1cccs1; Phe(4-F) = N[C@@H](Cc1ccc(F)cc1)C(=O)O; Butanoyl(4-cHex) = O=C(CCCC1CCCCC1)*; Hyp = O=C(O)[C@@H]1C[C@@H](O)CN1; NMeL = CN[C@@H](CC(C)C)C(=O)O; β3hK = NCCCC[C@H](N)CC(=O)O; BB725 = not defined here; Octanoyl = CCCCCCCC(=O)*; 1860 = not defined here; 1906 = not defined here; 2906 = cyclobutyl-amine; Ac5c = NC1(C(=O)O)CCCC1; Api = NC1(C(=O)O)CCNCC1; Che = not defined here; Hexanoyl = CCCCCC(=O)*; Paf = not defined here; leu = not defined here; Occ = octanoic acid

Consider {Butanoyl(4-cHex)}-[dA][dA]FGLKLDRI-NH2 [JAL-0693], for which the “EC50 group, cGMP in GTM-3 cells” value is at most 15 µM.

On to Octanoyl-[Sni][Phe(4-F)][leu]L[Hyp][NMeL]DRI-NH2 (reading uncertain; also: printed as Occ-Sni-Pff-leu-Leu-Hyp-Nml-Asp-Arg-Ile-NH2) [JAL-1487], for which the “EC50 group, cGMP in GTM-3 cells” value is at most 1 µM.

B1: JAL-1494 (peptide)
peptide: Octanoyl-[Sni]X[leu]L[Hyp][NMeL]DRI-NH2
modifications: not fully specified (some residues); printed as Occ-Sni-Pmf-leu-Leu-Hyp-Nml-Asp-Arg-Ile-NH2
As for B1, the “EC50 group, cGMP in GTM-3 cells” value is at most 1 µM.

For [Occ][Sni]F[Api]L[Hyp][NMeL]DRI-NH2 [JAL-1555], the “EC50 group, cGMP in GTM-3 cells” value was at most 1 µM.

Take Octanoyl-[Sni][Pro(trans-4-Ph)][leu]L[Hyp][NMeL]DRI-NH2 (reading uncertain; also: printed as Occ-Sni-Eay-leu-Leu-Hyp-Nml-Asp-Arg-Ile-NH2) [JAL-1491]: the “EC50 group, cGMP in GTM-3 cells” value is at most 5 µM.

B2: JAL-1508 (peptide)
peptide: [Occ][Sni]FLL[Hyp][NMeL]DP[2906]
modifications: not fully specified (residue 4); printed as Occ-Sni-Phe-leu-Leu-Hyp-Nml-Asp-Pro-2906
Turning to B2, the “EC50 group, cGMP in GTM-3 cells” value is at most 15 µM.

B3: JAL-1483 (peptide)
peptide: Octanoyl-AF[leu]L[Hyp][NMeL]D[β3hK]I-NH2
modifications: not fully specified (some residues); printed as Occ-ala-Phe-leu-Leu-Hyp-Nml-Asp-Bhk-Ile-NH2; reading uncertain
On to B3, for which the “EC50 group, cGMP in GTM-3 cells” value was at most 5 µM.

B4: JAL-0657 (peptide)
peptide: XXFGLKLDRI
HELM: PEPTIDE1{[CCCCCC(=O)[*:2]].[O=C([C@H]1CCC[C@@H](N[*:1])C1)[*:2]].F.G.L.K.L.D.R.I.[am]}$$$$V2.0
SMILES: CCCCCC(=O)N[C@@H]1CCC[C@H](C(=O)N[C@@H](Cc2ccccc2)C(=O)NCC(=O)N[C@@H](CC(C)C)C(=O)N[C@@H](CCCCN)C(=O)N[C@@H](CC(C)C)C(=O)N[C@@H](CC(=O)O)C(=O)N[C@@H](CCCNC(=N)N)C(=O)N[C@H](C(N)=O)[C@@H](C)CC)C1
Regarding B4, the “EC50 group, cGMP in GTM-3 cells” value was at most 15 µM.

Turning to Octanoyl-[Sni][Paf][leu]L[Hyp][NMeL]DRI-NH2 (reading uncertain; also: printed as Occ-Sni-Paf-leu-Leu-Hyp-Nml-Asp-Arg-Ile-NH2) [JAL-1492], the “EC50 group, cGMP in GTM-3 cells” value is at most 5 µM.

For the molecule Octanoyl-[Sni]Y[leu]L[Hyp][NMeL]DRI-NH2 (reading uncertain; also: printed as Occ-Sni-Tyr-leu-Leu-Hyp-Nml-Asp-Arg-Ile-NH2) [JAL-1489], the “EC50 group, cGMP in GTM-3 cells” value was at most 15 µM.

B5: JAL-1509_02 (peptide)
peptide: [Occ][Sni]FLL[Hyp][NMeL]DP[1381]
modifications: not fully specified (residue 4); printed as Occ-Sni-Phe-leu-Leu-Hyp-Nml-Asp-Pro-1381
B5: the “EC50 group, cGMP in GTM-3 cells” value was at most 5 µM.

B6: JAL-1511 (peptide)
peptide: [Occ][Sni]FLL[Hyp][NMeL]DP[1906]
modifications: not fully specified (residue 4); printed as Occ-Sni-Phe-leu-Leu-Hyp-Nml-Asp-Pro-1906; reading uncertain
In the case of B6, the “EC50 group, cGMP in GTM-3 cells” value is at most 5 µM.

[Occ][Sni]FAL[Hyp][NMeL]DRI-NH2 [JAL-1553]: the “EC50 group, cGMP in GTM-3 cells” value is at most 15 µM.

B7: JAL-1512_02 (peptide)
peptide: [Occ][Sni]FLL[Hyp][NMeL]DP[Che]
modifications: not fully specified (residue 4); printed as Occ-Sni-Phe-leu-Leu-Hyp-Nml-Asp-Pro-Che; reading uncertain
Consider B7, for which the “EC50 group, cGMP in GTM-3 cells” value is at most 1 µM.

B8: JAL-1513 (peptide)
peptide: [Occ][Sni]FLL[Hyp][NMeL]DP[5121]
modifications: not fully specified (residue 4); printed as Occ-Sni-Phe-leu-Leu-Hyp-Nml-Asp-Pro-5121
As to B8, the “EC50 group, cGMP in GTM-3 cells” value was at most 15 µM.

As for [Occ][Sni]FLL[Hyp][NMeL]DRI-NH2 [JAL-1554], the “EC50 group, cGMP in GTM-3 cells” value is at most 5 µM.

In the case of [Occ][dA]F[dL]L[Hyp][NMeL][dGly(2-thienyl)]RI-NH2 [JAL-1558], the “EC50 group, cGMP in GTM-3 cells” value is at most 1 µM.

For Octanoyl-[Sni][Pmy][leu]L[Hyp][NMeL]DRI-NH2 (reading uncertain; also: printed as Occ-Sni-Pmy-leu-Leu-Hyp-Nml-Asp-Arg-Ile-) [JAL-1488], the “EC50 group, cGMP in GTM-3 cells” value was at most 5 µM.

For the molecule Octanoyl-[Sni][Phe(4-NO2)][leu]L[Hyp][NMeL]DRI-NH2 (reading uncertain; also: printed as Occ-Sni-Nif-leu-Leu-Hyp-Nml-Asp-Arg-Ile-NH2) [JAL-1486], the “EC50 group, cGMP in GTM-3 cells” value is at most 5 µM.

As to Octanoyl-[Sni][Bmf][leu]L[Hyp][NMeL]DRI-NH2 (reading uncertain; also: printed as Occ-Sni-Bmf-leu-Leu-Hyp-Nml-Asp-Arg-Ile-) [JAL-1490], the “EC50 group, cGMP in GTM-3 cells” value was at most 15 µM.

B9: JAL-1509 (peptide)
peptide: [Occ][Sni]FLL[Hyp][NMeL]DP[1381]
modifications: not fully specified (residue 4); printed as Occ-Sni-Phe-leu-Leu-Hyp-Nml-Asp-Pro-1381
Consider B9, for which the “EC50 group, cGMP in GTM-3 cells” value was at most 5 µM.

Hexanoyl-[dA][dA]FGLKLDR[Ac5c]-NH2 [JAL-0692]: the “EC50 group, cGMP in GTM-3 cells” value is at most 15 µM.

B10: JAL-1493 (peptide)
peptide: Octanoyl-[Sni]X[leu]L[Hyp][NMeL]DRI-NH2
modifications: not fully specified (some residues); printed as Occ-Sni-Pcf-leu-Leu-Hyp-Nml-Asp-Arg-Ile-NH2
Consider B10, for which the “EC50 group, cGMP in GTM-3 cells” value was at most 1 µM.

B11: JAL-1496 (peptide)
peptide: [Occ][Sni][Phe(3,4-Cl2)]LL[Hyp][NMeL]DRI-NH2
modifications: not fully specified (residue 4); printed as Occ-Sni-Eaa-leu-Leu-Hyp-Nml-Asp-Arg-Ile-NH2
With B11, the “EC50 group, cGMP in GTM-3 cells” value is at most 1 µM.

B12: JAL-1556 (peptide)
peptide: [Occ][dA]F[dL]L[Hyp][NMeL][BB725]RI-NH2
modifications: reading uncertain; also: printed as Occ-ala-Phe-leu-Leu-Hyp-Nml-(BB725)-Arg-Ile-NH2
Turning to B12, the “EC50 group, cGMP in GTM-3 cells” value is at most 1 µM.

Turning to [Occ][Sni]F[dL]L[Pro(trans-4-NH2)][NMeL]DPI-NH2 [JAL-1559], the “EC50 group, cGMP in GTM-3 cells” value is at most 1 µM.

B13: JAL-1510 (peptide)
peptide: [Occ][Sni]FLL[Hyp][NMeL]DP[1860]
modifications: not fully specified (residue 4); printed as Occ-Sni-Phe-leu-Leu-Hyp-Nml-Asp-Pro-1860; reading uncertain
As to B13, the “EC50 group, cGMP in GTM-3 cells” value was at most 1 µM.

For [Occ][dA]F[dL]L[Hyp][NMeL][Gly(2-thienyl)]RI-NH2 [JAL-1557], the “EC50 group, cGMP in GTM-3 cells” value is at most 15 µM.

B14: JAL-1506 (peptide)
peptide: [Occ][Sni]FLL[Hyp][NMeL]DP[NH((S)-tetralin-1-yl)]
modifications: not fully specified (residue 4); printed as Occ-Sni-Phe-leu-Leu-Hyp-Nml-Asp-Pro-2118
On to B14, for which the “EC50 group, cGMP in GTM-3 cells” value was at most 5 µM.

For the origin of these results see patent US9187525B2, “Methods of treating ophthalmic diseases using NPR-B agonists” (Shire Orphan Therapies GmbH, dated 2015).
